# Measurements: US20160362487A1 (Regeneron, published 2016)
# Substitutions are numbered along the chain they refer to. Names and notes keep the numbering of the source.
# T1: cynomolgus monkey IL-33 expressed with a C-terminal hexahistidine tag (cynomolgus monkey)
# T1 construct: also called MfIL-33-6His; Mf-IL-33-6His
# T1 chain: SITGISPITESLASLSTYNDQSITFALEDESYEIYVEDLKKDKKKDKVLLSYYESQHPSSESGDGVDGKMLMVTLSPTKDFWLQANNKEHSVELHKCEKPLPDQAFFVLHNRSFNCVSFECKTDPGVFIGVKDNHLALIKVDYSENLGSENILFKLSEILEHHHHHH
# T2: human IL-33 (R&D Systems, #3625-IL-010/CF) (human, UniProt O95760 112-270)
# T2 construct: Commercial recombinant protein; also called hIL-33; interleukin-33
# T2 sequence (looked up): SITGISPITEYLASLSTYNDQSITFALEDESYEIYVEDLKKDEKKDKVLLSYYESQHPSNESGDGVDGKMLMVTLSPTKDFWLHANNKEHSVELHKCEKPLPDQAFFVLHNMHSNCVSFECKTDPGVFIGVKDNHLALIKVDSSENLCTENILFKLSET
# B1: H4H9667P (antibody, human IgG4, V domains shown)
# VH: EVQLVESGGGLVQPGGSLRLSCAASGFTFSTYSMHWVRQAPGKGLEYVSTINNNGDTTYYADSVKGRFTISRDNSKNTLYLQLGSLRPEDMAVYYCARQTYTSSWYGGFDSWGQGTLVTVSS
# VL: DIQMTQSPSSVSASVGDRVTITCRASQGITSWLAWYQQKPGKAPKLLIYAASNLQSGVPSRFSGSGSGTDFTLTITSLQPEDFATYYCQQANSLPFTFGPGTKVDIK
# notes: Human IgG4 Fc (H4H)
# B2: H4H9670P (antibody, V domains shown)
# VH: EVQLVESGGGLVQPGGSLRLSCAASGFTLSSYAMSWVRQAPGKGLEWVSAISGSGGSTYYADSVKGRFTISRDNSKNSLYLQLNSLRAEDTAVYYCAKTLYTTSWYGGFQHWGQGTLVTVSS
# VL: DIQMTQSPSSVSASIGDRVTITCRASQGISSWLAWYQQKPGKVPKLLIYAASSLQSGFPSRFSGSGSGTDFTLTISSLQPEDFATYYCQQTHSFPWTVGQGTKVEIK
# notes: Human IgG4 Fc (H4H)
# B3: H4H9671P (antibody, human IgG4, V domains shown)
# VH: EVQLVESGGGLVQPGGSLRLSCAASGFTLRSYFMTWVRQVPGKGLEGVSAISGISGGTYYTDSVKGRFTISRDNSKNTLFLQMNSLRAEDTAVYFCARTVYSSSYYGGFQHWGQGTLVTVSS
# VL: B2 VL with A13V, I15V, V43A, A50V, F58V, H92N, W96L, V98F, Q100G
# notes: Human IgG4 Fc (H4H)
# B4: H4H9675P (antibody, human IgG4, V domains shown)
# VH: EVQLVESGGNLEQPGGSLRLSCTASGFTFSRSAMNWVRRAPGKGLEWVSGISGSGGRTYYADSVKGRFTISRDNSKNTLYLQMNSLSAEDTAAYYCAKDSYTTSWYGGMDVWGHGTTVTVSS
# VL: B1 VL with T30F, N53S, T76S, T85I, L94V, F96I, P100Q, K103R, V104L, D105E
# notes: Human IgG4 Fc (H4H)
# Molecular target: T1, cynomolgus monkey IL-33 expressed with …
# Assay: SPR 25C pH7.4, mAb captured
# Experimental: (§1) Equilibrium dissociation constants (KD values) for IL-33 binding to purified anti-IL-33 monoclonal antibodies were determined using a real-time surface plasmon resonance biosensor using a Biacore 4000 instrument. The Biacore sensor surface was first derivatized by amine coupling with either a polyclonal rabbit anti-mouse antibody (GE, # BR-1008-38) or with a monoclonal mouse anti-human Fc antibody (GE, # BR-1008-39) to capture anti-IL-33 monoclonal antibodies expressed with mouse or with human IgG4 constant regions, respectively. All Biacore binding studies were performed in 0.01M ADA pH 7.4, 0.15M NaCl, 3 mM EDTA, and 0.05% v/v Surfactant Tween-20 (ABS-ET running buffer). […] Association of either hIL-33 or MfIL-33-6His to the captured monoclonal antibody was monitored for 4 minutes and their dissociation in ABS-ET running buffer was monitored for 10 minutes. The effect of reduced pH on the binding of each anti-IL-33 antibody to either hIL-33 or MfIL-33-6His was studied using an in-line pH chase assay format in 0.01M ADA pH 6.0, 0.15M NaCl, 3 mM EDTA, and 0.05% v/v Surfactant Tween-20 (ABS-ET pH6 buffer). To achieve this, association of either hIL-33 or MfIL-33-6His to the captured monoclonal antibody was monitored for 4 minutes in ABS-ET running buffer. Following a 30 second dissociation of either hIL-33 or MfIL-33-6His in ABS-ET running buffer, ABS-ET pH6 buffer was injected for 3 minutes, and the analyte dissociation under the low-pH conditions was measured. All the binding kinetic experiments were performed at both 25° C. and 37° C. Kinetic association (kₐ) and dissociation (kd) constants were determined by fitting the real-time sensorgrams to a 1:1 binding model using Scrubber 2.0c curve fitting software. Binding dissociation equilibrium constants (KD) and dissociative half-lives (t½) were calculated from the kinetic rate constants as: […]
Kd,koff,kon,t½,Binder
2.89 nM,0.000991 s⁻¹,343000 M⁻¹ s⁻¹,12 min,B1
4.77 nM,0.0021 s⁻¹,440000 M⁻¹ s⁻¹,6 min,B2
2.55 nM,0.0015 s⁻¹,587000 M⁻¹ s⁻¹,8 min,B3
2.55 nM,0.00129 s⁻¹,506000 M⁻¹ s⁻¹,9 min,B4

# Molecular target: T2, human IL-33 (R&D Systems, …)
# Assay: SPR 25C pH7.4, mAb captured
# Experimental: as §1
Kd,koff,kon,t½,Binder
0.395 nM,0.000252 s⁻¹,637000 M⁻¹ s⁻¹,46 min,B1
0.368 nM,0.000289 s⁻¹,786000 M⁻¹ s⁻¹,40 min,B2
0.453 nM,0.000349 s⁻¹,771000 M⁻¹ s⁻¹,33 min,B3
0.254 nM,0.000258 s⁻¹,1.02e+06 M⁻¹ s⁻¹,45 min,B4

# Molecular target: T1, cynomolgus monkey IL-33 expressed with …
# Assay: cell-based or functional assay
row,"IC50, inhibition of 5 pM MfIL-33-6His activation of HEK293/hST2/NFkB-luciferase cells",Binder
1,1.2e-08 M,B1
2,1.7e-08 M,B2
3,4.8e-09 M,B3
4,4.1e-09 M,B4

# Molecular target: T2, human IL-33 (R&D Systems, …)
# Assay: cell-based or functional assay
row,"IC50, inhibition of 10 pM hIL-33 activation of HEK293/hST2/NFkB-luciferase cells",Binder
1,7.1e-11 M,B1
2,1.2e-10 M,B2
3,2.5e-11 M,B3
4,7.5e-12 M,B4

# Molecular target: T1, cynomolgus monkey IL-33 expressed with …
# Assay: SPR 37C, pH6.0 chase, mAb captured
# Experimental: as §1
koff,t½,t½ Ratio (pH 7.4/pH 6.0),Binder
0.00268 s⁻¹,4 min,0.8,B1
0.00165 s⁻¹,7 min,0.3,B2
0.00819 s⁻¹,1.4 min,1.3,B3
0.00735 s⁻¹,1.6 min,1.5,B4

# Molecular target: T2, human IL-33 (R&D Systems, …)
# Assay: SPR 37C, pH6.0 chase, mAb captured
# Experimental: as §1
koff,t½,t½ Ratio (pH 7.4/pH 6.0),Binder
0.00244 s⁻¹,5 min,4,B1
0.00383 s⁻¹,3 min,4.9,B2
0.00585 s⁻¹,2 min,5.1,B3
0.00463 s⁻¹,2 min,5.3,B4

# Molecular target: T1, cynomolgus monkey IL-33 expressed with …
# Assay: competition ELISA, 150 pM MfIL-33-6His on coated hST2-hFc
# Experimental: The ability of anti-IL-33 antibodies to block either human IL-33 (hIL-33) or cynomologus monkey IL-33 binding to the human ST2 receptor was measured using a competition sandwich ELISA. […] The antibody/IL-33 mixtures were incubated for 1 hour at room temperature before they were transferred to the hST2-hFc-coated microtiter plates. After incubating for 1 hour at room temperature, the wells were then washed, and plate-bound biotin-hIL-33 was detected with streptavidin conjugated with horse-radish peroxidase (HRP) (Thermo Scientific, Cat # N200), and plate-bound MfIL-33-6His was detected with a HRP conjugated anti-His monoclonal antibody (Qiagen, #34460). All samples were developed with a TMB solution (BD biosciences, #51-2607KC) to produce a colorimetric reaction and then quenched by acidification with 1M sulfuric acid before measuring absorbance at 450 nm on a Victor X5 plate reader. Data analysis was performed using a sigmoidal dose-response model within Prism™ software. […] Percent blockade was calculated as the ratio of the reduction in signal observed in the presence of antibody relative to the difference between the signal with IL-33 alone and background (signal from HRP-conjugated secondary antibody or streptavidin alone). The absorbance measured for the constant concentration of biotin-hIL-33 or MfIL-33-6His alone is defined as 0% blocking and the absorbance measured for no added IL-33 is defined as 100% blocking.
% Maximum blocking,IC50,Binder
72%,4.1 nM,B1
69%,3.5 nM,B2
62%,0.58 nM,B3
72%,1.5 nM,B4
